Data from patent publication US20230265198A1 (TWIST BIOSCIENCE, published 2023).
Numbering of substitutions follows the chain as printed.

B1: NRP1-120 (antibody, IgG2, V domains shown)
VH: EVQLLESGGGLVQPGGSLRLSCAASGFTFKSYGMHWVRQAPGKGLEWVSEISPSGKKKYYADSVKGRFTISRDNSKNTLYLQMNSLRAEDTAVYYCAAPNDQSAAFDYWGQGTLVTVSS
VL: DIQMTQSPSSLSASVGDRVTITCKASDHIGKFLTWYQQKPGKAPKLLIYPKHNRPPGVPSRFSGSGSGTDFTLTISSLQPEDFATYYCQQSYDNPLTFGQGTKVEIK
B2: NRP1-98 (VHH)
VHH: EVQLVESGGGLVQPGGSLRLSCAASGLNLSRLDMGWFRQAPGKEREFVAAISWSGDSTNYADSVKGRFTISADNSKNTAYLQMNSLKPEDTAVYYCARIHKAPYYGMDVWGQGTLVTVSS
B3: NRP1-104 (VHH)
VHH: EVQLVESGGGLVQPGGSLRLSCAASGFSFDDYVMGWFRQAPGKEREFVARISTSGSWTGYADSVKGRFTISADNSKNTAYLQMNSLKPEDTAVYYCAINYSPGYPDHWGQGTLVTVSS
B4: NRP1-111 (VHH)
VHH: EVQLVESGGGLVQPGGSLRLSCAASGIAFRIRTMGWFRQAPGKERELVAAITSSSGRRWYADSVKGRFTISADNSKNTAYLQMNSLKPEDTAVYYCAARRIVNVEGAYRDWGQGTLVTVSS
B5: NRP1-124 (antibody, IgG2, V domains shown)
VH: EVQLLESGGGLVQPGGSLRLSCAASGFDFSDYEMSWVRQAPGKGLEWVSRISVAGRRTAYADSVKGRFTISRDNSKNTLYLQMNSLRAEDTAVYYCAKGRRKLRATRFDYWGQGTLVTVSS
VL: DIQMTQSPSSLSASVGDRVTITCSGDKLRNKYASWYQQKPGKAPKLLIYETSKLASGVPSRFSGSGSGTDFTLTISSLQPEDFATYYCQQSFSVPAFGQGTKVEIK
B6: NRP1-50 (VHH)
VHH: EVQLVESGGGLVQPGGSLRLSCAASGRTFNRYPMGWFRQAPGKEREWVAAISTSGGSTYYADSVKGRFTISADNSKNTAYLQMNSLKPEDTAVYYCAIHTSREIWGQGTLVTVSS
B7: NRP1-45 (VHH)
VHH: B6 VHH with I51A, S52H, T53W, S57R, T58M, Y59W
B8: NRP1-95 (VHH)
VHH: B6 VHH with V48I, A49S, I51L, S52A, T53P, S54G, S57N, T58R
B9: NRP1-102 (VHH)
VHH: EVQLVESGGGLVQPGGSLRLSCAASGGTIRTMGWFRQAPGKEREFVATISWSGALTHYADSVKGRFTISADNSKNTAYLQMNSLKPEDTAVYYCAHRDNFWSAYYDFWGQGTLVTVSS
B10: NRP1-97 (VHH)
VHH: EVQLVESGGGLVQPGGSLRLSCAASGFDFDNFDDYAMGWFRQAPGKEREFVAEIGWRDTTLYADSVKGRFTISADNSKNTAYLQMNSLKPEDTAVYYCARGRYDLSDFDYWGQGTLVTVSS
B11: NRP1-112 (VHH)
VHH: EVQLVESGGGLVQPGGSLRLSCAASGNIFINNAMGWFRQAPGKERELVAAITSSSGRRWYADSVKGRFTISADNSKNTAYLQMNSLKPEDTAVYYCAAYQRGWGDWGQGTLVTVSS
B12: NRP1-94 (VHH)
VHH: EVQLVESGGGLVQPGGSLRLSCAASGRTFSTYASMGWFRQAPGKEREFVARIWPGGSTYYADSVKGRFTISADNSKNTAYLQMNSLKPEDTAVYYCARQFGAWLGEVVGPMDVWGQGTLVTVSS
B13: NRP1-10 (VHH)
VHH: EVQLVESGGGLVQPGGSLRLSCAASGFTFSMWPMGWFRQAPGKEREFVARITGGGSTIWSRGDTYYADSVKGRFTISADNSKNTAYLQMNSLKPEDTAVYYCARADYYDSSAFDYWGQGTLVTVSS
B14: NRP1-107 (VHH)
VHH: EVQLVESGGGLVQPGGSLRLSCAASGRTFSNSGMGWFRQAPGKEREFVAAISWNGGTTNYADSVKGRFTISADNSKNTAYLQMNSLKPEDTAVYYCATLGGTVSGSHWSYFYYMDVWGQGTLVTVSS
B15: NRP1-127 (antibody, IgG2, V domains shown)
VH: EVQLLESGGGLVQPGGSLRLSCAASGFTFSNYGVSWVRQAPGKGLEWVSYISSSGSSTYYADSVKGRFTISRDNSKNTLYLQMNSLRAEDTAVYYCAKGARRFDYWGQGTLVTVSS
VL: DIQMTQSPSSLSASVGDRVTITCRASHNINSYLNWYQQKPGKAPKLLIYGKKNRPSGVPSRFSGSGSGTDFTLTISSLQPEDFATYYCGQSYRYPLTFGQGTKVEIK
B16: NRP1-136 (antibody, IgG2, V domains shown)
VH: EVQLLESGGGLVQPGGSLRLSCAASGFTFKDYGMNWVRQAPGKGLEWVSVISGSGGRPNYADSVKGRFTISRDNSKNTLYLQMNSLRAEDTAVYYCARVWRNHLDYWGQGTLVTVSS
VL: DIQMTQSPSSLSASVGDRVTITCSGDRLGEKYVSWYQQKPGKAPKLLIYGKKNRPSGVPSRFSGSGSGTDFTLTISSLQPEDFATYYCQAWASSTVVFGQGTKVEIK
B17: NRP1-108 (VHH)
VHH: EVQLVESGGGLVQPGGSLRLSCAASGNIPPINAMGWFRQAPGKEREWVATITSGGSTTYADSVKGRFTISADNSKNTAYLQMNSLKPEDTAVYYCARDRYFYDTSGNQRSSWFDPWGQGTLVTVSS
B18: NRP1-101 (VHH)
VHH: EVQLVESGGGLVQPGGSLRLSCAASGRNRYGMGWFRQAPGKEREFVAAISRSGGSTNYADSVKGRFTISADNSKNTAYLQMNSLKPEDTAVYYCAKGGAQNYTWGQGTLVTVSS
B19: NRP1-109 (VHH)
VHH: EVQLVESGGGLVQPGGSLRLSCAASGRTSRSYDMGWFRQAPGKEREFVASIDQSGESTAYADSVKGRFTISADNSKNTAYLQMNSLKPEDTAVYYCARADYYGSGSYFDYWGQGTLVTVSS
B20: NRP1-113 (VHH)
VHH: EVQLVESGGGLVQPGGSLRLSCAASGHTFRGDVMGWFRQAPGKEREFVASISGSGTRTLYADSVKGRFTISADNSKNTAYLQMNSLKPEDTAVYYCARDVEGGWYGLSYGMDVWGQGTLVTVSS
B21: NRP1-103 (VHH)
VHH: EVQLVESGGGLVQPGGSLRLSCAASGRTLSRYTMGWFRQAPGKERELVATITSGGSTGYADSVKGRFTISADNSKNTAYLQMNSLKPEDTAVYYCAKDKWGVRGEFDSWGQGTLVTVSS
B22: NRP1-110 (VHH)
VHH: EVQLVESGGGLVQPGGSLRLSCAASGRTFSNYSMGWFRQAPGKEREFVASIWWTFDAPYYADSVKGRFTISADNSKNTAYLQMNSLKPEDTAVYYCAKWDGLGTLWGQGTLVTVSS

These binders were tested against T1, neuropilin-1 (NRP1) on HEK293 cells overexpressing NRP1 (UniProt O14786 22-923, limits assumed) (assay: flow cytometry, HEK293-NRP1 vs HEK293).
T1 construct: whole, on cells

100 nM FACS (MFI Ratio)	Binder
5.2	B1
1.2	B2
6.2	B3
0.7	B4
1200	B5
5.9	B6
6.6	B7
1.5	B8
2.5	B9
1.7	B10
0.7	B11
2.8	B12
19.6	B13
2.8	B14
2.1	B15
128	B16
0.9	B17
2.4	B18
2.1	B19
0.4	B20
6.2	B21
3.3	B22
